Test: yeast display, Sf9 membrane polyspecificity reagent, FACS + sequencing; frameworks hold sequencing errors
Outline: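 After 36–48 hours of galactose induction, yeast (Saccharomyces cerevisiae BJ5465) displaying a synthetic nanobody library were stained at 4 °C for 1 hour with 10% biotinylated, detergent-solubilized Sf9 membrane reagent. Streptavidin microbeads enriched the stained cells before FACS sorting into low and high (top ~1%) gates on anti-HA and streptavidin fluorescence. Each clone's polyreactivity label reflects its gate of origin.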

| Sequence | polyreactivity (PSR sort gate) |
| --- | --- |
| QVQLVESGGGLVQAGGSLRLSCAASGRIFTVYAMGWYRQAPGKERELVAAISGRGGRTYYADSVKGRFTISRDNAKNTVYLQMNSLTPEDTAVYYCADYSYVRSSYEVEYDYWGQGTQVTVSS | low polyreactivity |
| QVQLVESGGGLVQAGGSLRLSCAASGRIFTWYAMGWYRQAPGKERELVAAISSAGRTYYADSVKGRFTISRDNAKNTVYLQMNSLKPEDTAVYYCAKVSKYRHFYTFDYWGQGTQVTVSS | high polyreactivity |
| QVQLVESGGGLVQAGGSLRLSCAASGRIFTYYAMGWYRQAPGKERELVAAISSGGSTYYADSVKGRFTISRDNAKNTVYLQMNSLKPEDTAVYYCAAEPWYYPYLSPTYGYWGHGTQVTVSS | low polyreactivity |
| QVQLVESGGGLVQAGGSLRLSCAASGRIFTYYAMGWYRQAPGKERELVATITRRGGRTYYADSVKGRFTISRDNAKNTVYLQMNSLKPEDTAVYYCAVVPETRYYYWGQGTLVTVSS | high polyreactivity |
| QVQLVESGGGLVQAGGSLRLSCAASGRIFTYYTMGWYRQAPGKERELVAAISWSGGRTYYADSVKGRFTISRDNAKNTVYLQMNSLKPEDTAVFYCARLQDSRESPWRGYYWGQGTQVTVSS | high polyreactivity |
| QVQLVESGGGLVQAGGSLRLSCAASGRIFTYYTMGWYRQAPGKERELVAAISYSGRTYYADSVKGRFTISRDNAKNTVYLQMNSLKPEDTAVYYCNAARPRGYGFDYWGQGTQVTVSS | high polyreactivity |
| QVQLVESGGGLVQAGGSLRLSCAASGRIFTYYTMGWYRQAPGKERELVASITGGGGRTYYADSVKGRFTISRDNAKNTVYLQMNSLKPEDTAVYYCNARYPYPYWYTSYDYWGQGTQVTVSS | high polyreactivity |
| QVQLVESGGGLVQAGGSLRLSCAASGRIFVDYAMGWYRQAPGKERELVAAITRSGDRTYYADSVKGRFTISRDNAKNTVYLQMNSLKPEDTAVYYCATVYPGYVWGQGTQVTVSS | low polyreactivity |
| QVQLVESGGGLVQAGGSLRLSCAASGRIFVGNAMVCYKQAPGKERELVAGITSRGGSTYYADSVKGRFTISRDNAKNTVYLQMNSLKQEDTAVYYCASYYRYPSWKFDYWGQGTQVTVSS | high polyreactivity |
| QVQLVESGGGLVQAGGSLRLSCAASGRIFVGYALGWYRQAPGKERELVAAINRSGSSTYYADSVKGRFTISRDNAKNTDYLQMNSLKPEDTAVYYCNARSGNRYGPRYDYWGQGTQVTVSS | high polyreactivity |
| QVQLVESGGGLVQAGGSLRLSCAASGRIFVGYAMGWYRQAPGKERELVAAINRSGSSTYYADSVKGRFTISRDNAKNTVYLQTNSLKPEDTAVYYCAVRPLYDRRYTAVRRYDYWGQGTQVTVSS | high polyreactivity |
| QVQLVESGGGLVQAGGSLRLSCAASGRIFVGYAMGWYRQATGKERELVAAISARGGSTYYADSVKGRCTISRDNAKNTVYIQMNSLKPEDTAVYYCAADEASSRGYYDYDYWGQGTQVTVSS | low polyreactivity |
| QVQLVESGGGLVQAGGSLRLSCAASGRIFVGYVMGWYRQAPGKERELVAAISSGGRTYYADSVKGRFTISRDNAKNTVYLQMNSLKPEDTAVYYCAAKRGGYNKEYDYWGQGTQVTVSS | high polyreactivity |
| QVQLVESGGGLVQAGGSLRLSCAASGRIFVHNAMGWYRQAPGKERELVAAIRSSGGRTYYADSVKGRFTISRDNAKKTVYLQMNSLKPEDTAVYYCAARFDTTRVGYWGQGTQVTVSS | high polyreactivity |
| QVQLVESGGGLVQAGGSLRLSCAASGRIFVHNAMGWYSQARGKERELVAAINSGGSTNYADSVKGRFTISRDNANKTVYLQMNSLKPEDTAVYYCAAYWYPYPDAFEYYNYGYWGQGTQVTVSS | high polyreactivity |
| QVQLVESGGGLVQAGGSLRLSCAASGRIFVHNVMGWYRQAPGKERELVAAITVSGGGTYYADSVKGRFTISRDNAKNTVYLQMNSLKQEDTAVYYCNAVPHPYDWGQGTQVTVSS | low polyreactivity |
| QVQLVESGGGLVQAGGSLRLSCAASGRIFVHYAMGWYRQAPGKERDLVAAISMSGGNTYYADSVKGRFTISRDNEKNTVYLQMNSLKPEDTAVYYCARAPYYVASGHRRVLRPTYEYWGQGTQLTVSS | low polyreactivity |
| QVQLVESGGGLVQAGGSLRLSCAASGRIFVHYASGWYRQAPGKERELVAAISWNGGRTFYADSVKGRFTISRDNAKNTVYLQMNSLKPEDTAVYYCAARSRYSLDYWGQGTQVTVSS | high polyreactivity |
| QVQLVESGGGLVQAGGSLRLSCAASGRIFVHYVMGWYRQAPGKERELVAAISRSGGRTYYADSVKGRFTISRDNAKNTVYLQMNSLKAEDTAVYYCATDASTYKYDYWGQGSQVTVSS | high polyreactivity |
| QVQLVESGGGLVQAGGSLRLSCAASGRIFVHYVMGWYRQAPGKERELVAAITVSGGGTYYADSVKGRFTISRDNAKNTVYLQMNSLKPEDTAVYYCNAVPHPYDWGQGTQVTVSS | low polyreactivity |
| QVQLVESGGGLVQAGGSLRLSCAASGRIFVINTMGWYRQAPGKERELVAAISRGGSTNYADSVKGRFTISRDNAKNTVYLQMNSLKPEDTAVYDCAATGYILFAGCGYDYWGEGTQVTVSS | low polyreactivity |
| QVQLVESGGGLVQAGGSLRLSCAASGRIFVIYAMGWYRQAPGKERELVAAISYSGGSTYYADSVKGRFTISRDNAKNTVYLQMNSLKPEDTAVYYCAARVRGDYGHKYYQYDYWGQGTQVTVSS | low polyreactivity |

| Sequence | polyreactivity (PSR sort gate) |
| --- | --- |
| QVQLVESGGGLVQAGGSLRLSCAASGRIFVKYAMGWYRQAPGKERELVAAISKSGGSTYYADSVKGRFTISRDNAKNTVYLQMNSLKPEDTAVYYCATRSREQYSVSYRLDYWGQGTQVTVSS | low polyreactivity |
| QVQLVESGGGLVQAGGSLRLSCAASGRIFVKYGMGWYRQAPGKERELVAAISWTGGSTYYADSVKGRFTISRDNAKNTVYLQMNSLKPEDTAVYYCAAESWFKYDYWGQGTQVTVSS | low polyreactivity |
| QVQLVESGGGLVQAGGSLRLSCAASGRIFVLYAMGWYRQAPGKERELVAAINWSGGSTFYADSVKGRFTISRDNAKNTVYLQMNSLKPEDTAVYYCAARRGYNDGYWGQGTQVTVSS | high polyreactivity |
| QVQLVESGGGLVQAGGSLRLSCAASGRIFVNNAMGWYRQAPGKEREFDATITSSGGRTYYADSVKGRFTISRDNAKYTVYLQMNSLKPEDTAVYYCAARPQNNGRNPVYRYNYWGQGTQVTVSS | high polyreactivity |
| QVQLVESGGGLVQAGGSLRLSCAASGRIFVPYAMGWYRQAPGKERELVAAISRNTGSTYYADSVKGRFTISRDNAKNTVYLQMNSLKPEDTAVYYCAAGSRVRYDGGYKINGYWGQGTQVTVSS | high polyreactivity |
| QVQLVESGGGLVQAGGSLRLSCAASGRIFVPYAMGWYRQAPGKERELVAAISRSSPTYYADSVKGRFTISRDNAKNSVYLQMNSLKQEDTAGYYCAAAYYATTPKADYHFRGYEYWGQGTQVTVSS | high polyreactivity |
| QVQLVESGGGLVQAGGSLRLSCAASGRIFVRNALGWYRQAPGKERELVAGINSGGGTTYADSVKGRFTISRDNAKNTVYLQMNSLKPEDTAVYYCAAGYWTRYWSWVDYWGQGTQVTVSS | high polyreactivity |
| QVQLVESGGGLVQAGGSLRLSCAASGRIFVRNAMGWYRQAPGKERELVATITSIGGRTYYADSVKGRFTISRDNAKNTVYLQMNSLKPEDTAVYYCAAYNTQSYPAYLRYDYWGQGTQVTVSS | low polyreactivity |
| QVQLVESGGGLVQAGGSLRLSCAASGRIFVRNVMGWYRQAPGQERELVARITSGGSTNYADSVKGRFTISRDNAKNTVYLQINSLKPEDTAVYYCAAQGRHYHRTSTGYDYWGQGTQVTVSS | high polyreactivity |
| QVQLVESGGGLVQAGGSLRLSCAASGRIFVRYAMGWYRQAPGKERELVAAISYRGGSTYYADSVKGRFTISRDNAKNTVYLQMNSLKPEDTAVYYCAARNSYGNWRYYYWGQGTQVTVSS | high polyreactivity |
| QVQLVESGGGLVQAGGSLRLSCAASGRIFVRYAMGWYRQAPGKERELVASIRSGGSTNYADSVKGRFTISRDNAKNTVYLQMNSLKPEDTAVYYCAAVLRPVRFYSGYYYWGQGTQVTVSS | high polyreactivity |
| QVQLVESGGGLVQAGGSLRLSCAASGRIFVRYDRGWYRQAPGKERELVAAISSSDGSTYYADSVKGRFTISRDNAKNTVYLQMNSLKPEDTAVYYCNADVSLDDYDYWGQGTQVTVSS | low polyreactivity |
| QVQLVESGGGLVQAGGSLRLSCAASGRIFVRYTMGWYRQAPGKERELVARITSGGSTNYADSVKGRFTISRDNAKNTVYLQMNSLKPEDTAVYYCAKSYGPRFGYWGQGTQVTVSS | low polyreactivity |
| QVQLVESGGGLVQAGGSLRLSCAASGRIFVSNAMGWYRQAPGKERELVAAISSSGGSTYYADSVKGRFTISRDNAKNTVYLQMNSLKPEDTAVYYCNVLGQRYYPSGRNYWGQGTQVTVSS | high polyreactivity |
| QVQLVESGGGLVQAGGSLRLSCAASGRIFVSNAMGWYRQAPGKERELVACITWTSGSTYYADSVKGRFTISRDNAKNTVYLQMNSLKPEDTAVYYCAAEYWYGNAFDYWGQGTQVTVSS | low polyreactivity |
| QVQLVESGGGLVQAGGSLRLSCAASGRIFVSNAMGWYRQAPGKERELVAGITWTSGSTYYADSVKGRFTISRDNAKNTFYLQMNSLKPEDSAVYYCAAEFWYGNALDYWGQGTQVTVSS | low polyreactivity |
| QVQLVESGGGLVQAGGSLRLSCAASGRIFVSNDMGWYSQAPGKERELVAAISWSDDSTHYADSVKGRLTISRDNAKNTVYLQMNSLKPEDTAVYYCNKQRYYSTWRYDYWGQGTQVTVSS | low polyreactivity |
| QVQLVESGGGLVQAGGSLRLSCAASGRIFVSNTMGWYRQAPGKDWEWVAAITSVGSTNYADSVKGRFTISRDHAKNTVYLQMNSLKPEDTAVYYCNADNPYSDGADSLGNYWGQGTQVTVSS | low polyreactivity |
| QVQLVESGGGLVQAGGSLRLSCAASGRIFVTNAMGWYRQAPGKEREMVAAITRRGGRTYYADSVKGRFTISRDNAKNTVYLQMHSLKREDTAVYYCAAERYPEAGSPYGTAEMDYWGQGTQVTVSS | high polyreactivity |
| QVQLVESGGGLVQAGGSLRLSCAASGRIFVTNTMGWYRQAPGKERELVAAIDNSAGSTYYADSVKGRFTISRDNAKNTVYLQMNSLKPEDTAVYYCAADYPPYYGYGYWGQGTQVSVSS | low polyreactivity |
| QVQLVESGGGLVQAGGSLRLSCAASGRIFVVNAMGWYRQAPGKERELVAAITRRGGSTYADSVKGRFTISRDNAKNTVYLQMNSLKPEDTAVYYCNKLVTGGSWSPGHYRYNYWGQGTQVTVSS | high polyreactivity |

Reference: the nanobody polyreactivity screen of Harvey et al. (2022)
